Test results reported in patent US20230235048A1 (PROTHENA BIOSCIENCES, published 2023).
Numbering of substitutions follows the chain as printed. One block for each binder: values may come before it.

Key:
[1] = molecular target: T1, extracellular domain (ECD) of recombinant human Sortilin with a C-terminal HIS tag (ECD-huSortilin-HIS) (human, UniProt Q99523 78-755); experiment: ELISA, ECD-huSortilin-HIS coated at 1 ug/mL, goat anti-human IgG-HRP, chemiluminescence
T1 construct: Bought (R&D Systems); also called human sortilin-ECD; not shown: C-terminal HIS tag
T1 sequence: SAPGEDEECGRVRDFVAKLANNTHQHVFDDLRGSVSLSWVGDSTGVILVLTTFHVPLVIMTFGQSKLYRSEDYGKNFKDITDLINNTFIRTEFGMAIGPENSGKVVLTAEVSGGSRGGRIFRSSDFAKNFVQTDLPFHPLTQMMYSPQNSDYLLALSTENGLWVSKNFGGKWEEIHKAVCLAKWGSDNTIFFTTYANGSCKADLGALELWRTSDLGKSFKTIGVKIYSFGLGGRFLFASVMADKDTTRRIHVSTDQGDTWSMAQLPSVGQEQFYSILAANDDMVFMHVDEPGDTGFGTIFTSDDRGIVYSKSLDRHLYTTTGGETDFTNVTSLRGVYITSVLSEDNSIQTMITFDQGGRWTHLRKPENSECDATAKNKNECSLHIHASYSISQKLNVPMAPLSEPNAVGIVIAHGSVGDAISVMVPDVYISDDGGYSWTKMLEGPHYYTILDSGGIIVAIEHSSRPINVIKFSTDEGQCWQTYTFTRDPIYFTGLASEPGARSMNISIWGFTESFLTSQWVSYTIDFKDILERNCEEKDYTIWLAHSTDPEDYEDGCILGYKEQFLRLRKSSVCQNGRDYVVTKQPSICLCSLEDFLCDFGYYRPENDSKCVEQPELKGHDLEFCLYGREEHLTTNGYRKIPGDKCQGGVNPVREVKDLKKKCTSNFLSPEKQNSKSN
Protocol: 384-well ELISA plates were coated with 1 ug/mL recombinant ECD-huSortilin-HIS (20 uL/well) and incubated overnight at 4° C. all plates were blocked with 3% BSA in PBS for 1 hour at room temperature. Plates were then washed with Tris buffered saline containing 0.1% Tween20 (TBST) three times. 20 uL of humanized anti-Sortilin mAbs diluted 3-fold from 20 ug/mL to 0.3 ng/mL in 1% BSA in TBST were added to the wells, incubated for 1 hour at room temperature and then washed as above. Goat anti-human IgG specific-HRP (Jackson Immunoresearch) diluted 1:7000 in 1% BSA in TBST was then added at 20 uL per well to react with the bound antibodies and plates were incubated for 1 hour before being washed as above. Super signal Pico chemiluminescent ELISA substrate (ThermoFisher) was used for detection. 20 uL of substrate was added to each well and Relative Light Units (RLU) were measured immediately using the SpectraMax Paradigm (Molecular Devices). Data was analyzed and EC₅₀ was calculated using graphed Prism.

[2] = molecular target: T1, extracellular domain (ECD) of …; experiment: SPR (Biacore T200), mAb captured by anti-human antibody on CM5, Sortilin 0.1-300 nM as analyte, global 1:1 fit
Protocol: Analysis was performed using a Biacore T200 to compare the binding affinity of chimeric and humanized antibodies to recombinant human Sortilin. Anti-Human antibody was immobilized on sensor chip CM5 (GE Healthcare Life Sciences) via amine coupling, and humanized antibodies (ligand) were captured to a level to ensure a maximum binding of analyte of 50 RU (approximately 100 RU of ligand binding). Various concentrations of Sortilin (ranging from 0.1 nM to 300 nM) were passed over the captured ligand at 50 μL/min in running buffer (HBS+0.05% P-20, 1 mg/mL BSA) for 300s association time and 1200s dissociation time. Regeneration of the chip surface was accomplished by 2 short injections of 3M MgCl. Data was blank subtracted to both a sensor not containing ligand and 0 nM analyte concentration. Analysis was performed using a global 1:1 fit with Biacore Insight Evaluation software (v2.0) with bulk refractive index set to zero RU.

- EC50 [1]: 0.08 µg/mL
- Kd [2]: 5.37 nM
- koff [2]: 0.00193 s⁻¹
- kon [2]: 360000 M⁻¹ s⁻¹
B1: humanized 11M14 hu11M14VHv1b/hu11M14VLv2b (antibody, V domains shown)
VH: EVQLVESGGGLVQPGGSLRLSCAASGFTFNIYGMSWVRQAPGKGLEWVATISSGGIYTYYPDILKGRFTISRDNAKNSLYLQMNSLRAEDTAVYYCARHPGGAMDYWGQGTLVTVSS
VL: DIQMTQSPSSLSASVGDRVTITCRVSENIYSNLAWYQQKPGKSPKLLVYAATNLADGVPSRFSGSGSGTDYTLTISSLQPEDFATYYCQHFWGTPPWTFGQGTKLEIK
notes: Human IgG; also called 11M14H1bL2b

- EC50 [1]: 0.13 µg/mL
- Kd [2]: 2.99 nM
- koff [2]: 0.00119 s⁻¹
- kon [2]: 398000 M⁻¹ s⁻¹
B2: humanized 11M14 hu11M14VHv2b/hu11M14VLv3b (antibody, V domains shown)
VH: B1 VH with L86G
VL: B1 VL with L54G
notes: Human IgG; also called 11M14H2bL3b

- EC50 [1]: 0.1 µg/mL
- Kd [2]: 7.91 nM
- koff [2]: 0.00344 s⁻¹
- kon [2]: 435000 M⁻¹ s⁻¹
B3: humanized 11M14 hu11M14VHv3b/hu11M14VLv4b (antibody, V domains shown)
VH: B1 VH with L81G
VL: B1 VL with L54I
notes: Human IgG; also called 11M14H3bL4b

- EC50 [1]: 0.19 µg/mL
- Kd [2]: 7.07 nM
- koff [2]: 0.00225 s⁻¹
- kon [2]: 319000 M⁻¹ s⁻¹
B4: humanized 11M14 hu11M14VHv3b/hu11M14VLv2b (antibody, V domains shown)
VH: B1 VH with L81G
VL: B1 VL
notes: Human IgG; also called 11M14H3bL2b

- EC50 [1]: 0.23 µg/mL
- Kd [2]: 9.17 nM
- koff [2]: 0.00343 s⁻¹
- kon [2]: 374000 M⁻¹ s⁻¹
B5: humanized 11M14 hu11M14VHv3b/hu11M14VLv3b (antibody, V domains shown)
VH: B1 VH with L81G
VL: B1 VL with L54G
notes: Human IgG; also called 11M14H3bL3b

- EC50 [1]: 0.07 µg/mL
- Kd [2]: 5.3 nM
- koff [2]: 0.002 s⁻¹
- kon [2]: 377000 M⁻¹ s⁻¹
B6: humanized 11M14 hu11M14VHv1b/hu11M14VLv3b (antibody, V domains shown)
VH: B1 VH
VL: B1 VL with L54G
notes: Human IgG; also called 11M14H1bL3b; hu11M14H1bL3b

- EC50 [1]: 0.07 µg/mL
- Kd [2]: 2.86 nM
- koff [2]: 0.0012 s⁻¹
- kon [2]: 421000 M⁻¹ s⁻¹
B7: humanized 11M14 hu11M14VHv2b/hu11M14VLv2b (antibody, V domains shown)
VH: B1 VH with L86G
VL: B1 VL
notes: Human IgG; also called 11M14H2bL2b

- EC50 [1]: 0.08 µg/mL
- Kd [2]: 5.32 nM
- koff [2]: 0.0019 s⁻¹
- kon [2]: 357000 M⁻¹ s⁻¹
B8: humanized 11M14 hu11M14VHv1b/hu11M14VLv4b (antibody, V domains shown)
VH: B1 VH
VL: B1 VL with L54I
notes: Human IgG; also called 11M14H1bL4b

- EC50 [1]: 0.1 µg/mL
- Kd [2]: 2.84 nM
- koff [2]: 0.00117 s⁻¹
- kon [2]: 413000 M⁻¹ s⁻¹
B9: humanized 11M14 hu11M14VHv2b/hu11M14VLv4b (antibody, V domains shown)
VH: B1 VH with L86G
VL: B1 VL with L54I
notes: Human IgG; also called 11M14H2bL4b

- EC50 [1]: 0.09 µg/mL
- Kd [2]: 15.3 nM
- koff [2]: 0.0028 s⁻¹
- kon [2]: 183000 M⁻¹ s⁻¹
B10: humanized 5E20 hu5E20VHv3/hu5E20VLv3 (antibody, V domains shown)
VH: EVQLVESGGGLVQPGGSLRLSCAASGFTFSTYGMSWVRQAPGKRLEWVAIISSGGSYTYYSDTVKGRFTISRDNSKNSLYLQMNSLRAEDTAVYYCSRSSSHWYFDVWGQGTLVTVSS
VL: DIQMTQSPSSVSASVGDRVTITCHASQGISSNIGWLQQKPGKAFKGLIYHGTNLKDGVPSRFSGSGSGADFTLTISSLQPEDFATYFCVQYAQFPYTFGQGTKVEKR
notes: Human IgG; also called 5E20H3L3

- EC50 [1]: 0.05 µg/mL
- Kd [2]: 5.46 nM
- koff [2]: 0.00115 s⁻¹
- kon [2]: 211000 M⁻¹ s⁻¹
B11: humanized 5E20 hu5E20VHv5/hu5E20VLv4 (antibody, V domains shown)
VH: B10 VH with G42D, R87K
VL: B10 VL with T85D
notes: Human IgG; also called 5E20H5L4

- EC50 [1]: 0.12 µg/mL
B12: humanized 5E20 hu5E20VHv1/hu5E20VLv1 (antibody, V domains shown)
VH: B10 VH with V5L, R44G, S78T
VL: B10 VL with V11L, Q100G, K106I
notes: Human IgG (detected or captured with anti-human IgG; huIgG1 control); also called 5E20H1L1

- EC50 [1]: 0.04 µg/mL
- Kd [2]: 5.57 nM
- koff [2]: 0.00117 s⁻¹
- kon [2]: 209000 M⁻¹ s⁻¹
B13: humanized 5E20 hu5E20VHv4/hu5E20VLv4 (antibody, V domains shown)
VH: B10 VH with G42D
VL: B10 VL with T85D
notes: Human IgG; also called 5E20H4L4

- EC50 [1]: 0.08 µg/mL
B14: humanized 5E20 hu5E20VHv2/hu5E20VLv2 (antibody, V domains shown)
VH: B10 VH with R44G
VL: B10 VL with K106I
notes: Human IgG; also called 5E20H2L2

- EC50 [1]: 0.07 µg/mL
- Kd [2]: 6.36 nM
- koff [2]: 0.00145 s⁻¹
- kon [2]: 228000 M⁻¹ s⁻¹
B15: humanized 5E20 hu5E20VHv4/hu5E20VLv3 (antibody, V domains shown)
VH: B10 VH with G42D
VL: B10 VL
notes: Human IgG; also called 5E20H4L3

- EC50 [1]: 0.12 µg/mL
B16: humanized 5E20 hu5E20VHv2/hu5E20VLv1 (antibody, V domains shown)
VH: B10 VH with R44G
VL: B10 VL with V11L, Q100G, K106I
notes: Human IgG; also called 5E20H2L1

- EC50 [1]: 0.09 µg/mL
B17: humanized 5E20 hu5E20VHv1/hu5E20VLv3 (antibody, V domains shown)
VH: B10 VH with V5L, R44G, S78T
VL: B10 VL
notes: Human IgG; also called 5E20H1L3

- EC50 [1]: 0.12 µg/mL
B18: humanized 5E20 hu5E20VHv1/hu5E20VLv2 (antibody, V domains shown)
VH: B10 VH with V5L, R44G, S78T
VL: B10 VL with K106I
notes: Human IgG; also called 5E20H1L2

- EC50 [1]: 0.06 µg/mL
- Kd [2]: 4.18 nM
- koff [2]: 0.00108 s⁻¹
- kon [2]: 259000 M⁻¹ s⁻¹
B19: humanized 5E20 hu5E20VHv7/hu5E20VLv3 (antibody, V domains shown)
VH: B10 VH with A40T, G42D
VL: B10 VL
notes: Human IgG; also called 5E20H7L3

- EC50 [1]: 0.07 µg/mL
- Kd [2]: 6.01 nM
- koff [2]: 0.0014 s⁻¹
- kon [2]: 233000 M⁻¹ s⁻¹
B20: humanized 5E20 hu5E20VHv5/hu5E20VLv3 (antibody, V domains shown)
VH: B10 VH with G42D, R87K
VL: B10 VL
notes: Human IgG; also called 5E20H5L3

- EC50 [1]: 0.1 µg/mL
B21: humanized 5E20 hu5E20VHv2/hu5E20VLv3 (antibody, V domains shown)
VH: B10 VH with R44G
VL: B10 VL
notes: Human IgG; also called 5E20H2L3

- EC50 [1]: 0.07 µg/mL
- Kd [2]: 14.8 nM
- koff [2]: 0.00257 s⁻¹
- kon [2]: 174000 M⁻¹ s⁻¹
B22: humanized 5E20 hu5E20VHv3/hu5E20VLv4 (antibody, V domains shown)
VH: B10 VH
VL: B10 VL with T85D
notes: Human IgG; also called 5E20H3L4

- EC50 [1]: 0.04 µg/mL
- Kd [2]: 5.02 nM
- koff [2]: 0.0011 s⁻¹
- kon [2]: 218000 M⁻¹ s⁻¹
B23: humanized 5E20 hu5E20VHv7/hu5E20VLv4 (antibody, V domains shown)
VH: B10 VH with A40T, G42D
VL: B10 VL with T85D
notes: Human IgG; also called 5E20H7L4; hu5E20H7L4

- EC50 [1]: 0.06 µg/mL
- Kd [2]: 2.52 nM
B24: chimeric 11M14 (antibody, human IgG1, kappa, L234A L235A, V domains shown)
VH: EVQLVESGGDLVKPGGSLKLSCAASGFTFNIYGMSWVRQTPDKRLEWVATISSGGIYTYYPDILKGRFTISRDNAKNTLYLQMSSLKSEDTAMYYCARHPGGAMDYWGQGTSVTVSS
VL: DIQMTQSPASLSVSVGETVTITCRVSENIYSNLAWYQQKQGKSPHLLVYAATNLADGVPSRFSGSGSGTQYSLKINSLQSEDFGSYYCQHFWGTPPWTFGGGTKLEIKR
